Experimental data taken from patent publication US20240301052A1 (LANOVA MEDICINES DEVELOPMENT, published 2024).
Where two headings read alike, the source gives them in different places.

Tests used:
human SLC34A2 [1] = target: T1, human SLC34A2 (human, UniProt O95436 1-690); assay: FACS, HEK293/human SLC34A2 cells
T1 construct: whole, on cells; also called human solute carrier 34 A2; NaPi2b
T1 sequence (looked up): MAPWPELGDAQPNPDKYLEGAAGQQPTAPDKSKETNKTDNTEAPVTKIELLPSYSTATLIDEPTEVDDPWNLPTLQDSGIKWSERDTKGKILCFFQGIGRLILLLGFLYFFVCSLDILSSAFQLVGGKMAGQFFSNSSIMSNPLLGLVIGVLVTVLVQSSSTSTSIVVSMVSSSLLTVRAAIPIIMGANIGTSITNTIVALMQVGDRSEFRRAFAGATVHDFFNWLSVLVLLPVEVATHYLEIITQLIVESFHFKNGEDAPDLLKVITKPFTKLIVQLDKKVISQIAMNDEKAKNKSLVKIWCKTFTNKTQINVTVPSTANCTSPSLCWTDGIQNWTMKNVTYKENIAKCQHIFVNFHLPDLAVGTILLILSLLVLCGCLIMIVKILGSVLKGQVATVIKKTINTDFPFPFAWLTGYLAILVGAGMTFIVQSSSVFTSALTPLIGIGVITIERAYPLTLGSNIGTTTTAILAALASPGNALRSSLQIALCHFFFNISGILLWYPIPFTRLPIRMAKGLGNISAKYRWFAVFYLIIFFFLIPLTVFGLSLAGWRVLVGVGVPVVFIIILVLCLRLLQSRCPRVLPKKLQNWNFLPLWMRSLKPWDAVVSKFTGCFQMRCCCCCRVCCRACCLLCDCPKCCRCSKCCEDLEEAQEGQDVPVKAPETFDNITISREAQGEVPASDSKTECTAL
Procedure: (§1) Briefly, OVCAR3 cells or HEK293 cells expressing human SLC34A2 were incubated with chimeric antibodies (from 200 nM, 4 folds dilution, 8 points). After incubation at 4° C. for 60 minutes, the cells were washed with FACS buffer twice, then stained with fluorescent conjugated secondary antibody at 4° C. for 30 minutes. After that the cells were washed twice and analyzed by flow cytometry.

Rhesus SLC34A2 [2] = target: T2, Rhesus SLC34A2 (Rhesus, UniProt F7HDA3 1-690); assay: FACS, HEK293/Rhesus SLC34A2 cells
T2 construct: whole, on cells
T2 sequence: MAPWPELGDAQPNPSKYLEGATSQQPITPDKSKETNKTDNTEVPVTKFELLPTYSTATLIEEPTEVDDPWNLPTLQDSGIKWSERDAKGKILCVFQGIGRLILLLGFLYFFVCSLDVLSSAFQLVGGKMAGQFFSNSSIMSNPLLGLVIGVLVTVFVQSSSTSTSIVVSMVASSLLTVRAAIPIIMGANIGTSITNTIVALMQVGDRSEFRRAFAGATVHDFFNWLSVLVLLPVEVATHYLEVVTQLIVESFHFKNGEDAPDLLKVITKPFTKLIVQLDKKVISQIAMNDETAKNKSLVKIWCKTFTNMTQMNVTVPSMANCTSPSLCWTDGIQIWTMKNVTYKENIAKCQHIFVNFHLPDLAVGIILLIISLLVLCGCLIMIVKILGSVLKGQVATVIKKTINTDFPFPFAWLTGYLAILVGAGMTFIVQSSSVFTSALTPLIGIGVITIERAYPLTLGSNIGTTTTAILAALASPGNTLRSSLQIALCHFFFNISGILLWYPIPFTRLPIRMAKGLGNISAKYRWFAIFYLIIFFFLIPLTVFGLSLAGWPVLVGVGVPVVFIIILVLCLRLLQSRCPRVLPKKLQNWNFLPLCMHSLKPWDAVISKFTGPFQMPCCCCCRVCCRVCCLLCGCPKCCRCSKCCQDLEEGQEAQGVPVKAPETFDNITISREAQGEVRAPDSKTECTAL
Procedure: as §1, with “the Rhesus SLC34A2 expressing HEK293 engineering” for “OVCAR3”, “(HEK293/Rhesus_SLC34A2)” for “or HEK293 cells expressing human SLC34A2”, “Abs” for “antibodies”

human SLC34A2 [3] = target: T1, human SLC34A2; assay: FACS, OVCAR3 cells
human SLC34A2 [4] = target: T1, human SLC34A2; assay: cell-based or functional assay
human SLC34A2 [5] = target: T1, human SLC34A2; assay: FACS, HEK293/human SLC34A2 cells; remark: listed apart in the source
Procedure: The PTM-derisked VH chains were first tested for their impact on target binding. Cell based binding of PTM Abs on human SLC34A2 expressing cells were assessed using flow cytometry. Briefly, the HEK293/H_SLC34A2 cells were incubated with PTM Abs (from 200 nM, 4 folds dilution, 8 points). After incubation at 4° C. for 60 minutes, the cells were washed with FACS buffer twice, then stained with fluorescent conjugated secondary antibody at 4° C. for 30 minutes. After that the cells were washed twice and analyzed by flow cytometry.

human SLC34A2 [6] = target: T1, human SLC34A2; assay: FACS, RMG-1 cells
Procedure: Based on the foregoing cell-based binding results, some of the chimeric antibodies were selected for further cell based binding on human SLC34A2 expressing cells using flow cytometry. RMG-1 cells were incubated with the selected chimeric antibodies (from 200 nM, 4 folds dilution, 8 points). After incubation at 4° C. for 60 minutes, the cells were washed with FACS buffer twice, then stained with fluorescent conjugated secondary antibody at 4° C. for 30 minutes. Afterwards the cells were washed twice and analyzed by flow cytometry.

human SLC34A2 [7] = target: T1, human SLC34A2; assay: FACS, OVCAR3 cells; remark: listed apart in the source
Method in brief: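 Chimeric hIgG1 antibodies titrated from 200 nM (4-fold, 8 points) on OVCAR3 cells or HEK293 cells expressing human SLC34A2, 60 min at 4° C. Bound antibody detected with fluorescent secondary antibody (30 min, 4° C) and measured by flow cytometry.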

Cynomolgus SLC34A2 = target: T3, Cynomolgus SLC34A2 (Cynomolgus, UniProt A0A2K5UHY1 1-690); assay: FACS, cells expressing Cynomolgus SLC34A2
T3 construct: whole, on cells; also called Cyno SLC34A2
T3 sequence: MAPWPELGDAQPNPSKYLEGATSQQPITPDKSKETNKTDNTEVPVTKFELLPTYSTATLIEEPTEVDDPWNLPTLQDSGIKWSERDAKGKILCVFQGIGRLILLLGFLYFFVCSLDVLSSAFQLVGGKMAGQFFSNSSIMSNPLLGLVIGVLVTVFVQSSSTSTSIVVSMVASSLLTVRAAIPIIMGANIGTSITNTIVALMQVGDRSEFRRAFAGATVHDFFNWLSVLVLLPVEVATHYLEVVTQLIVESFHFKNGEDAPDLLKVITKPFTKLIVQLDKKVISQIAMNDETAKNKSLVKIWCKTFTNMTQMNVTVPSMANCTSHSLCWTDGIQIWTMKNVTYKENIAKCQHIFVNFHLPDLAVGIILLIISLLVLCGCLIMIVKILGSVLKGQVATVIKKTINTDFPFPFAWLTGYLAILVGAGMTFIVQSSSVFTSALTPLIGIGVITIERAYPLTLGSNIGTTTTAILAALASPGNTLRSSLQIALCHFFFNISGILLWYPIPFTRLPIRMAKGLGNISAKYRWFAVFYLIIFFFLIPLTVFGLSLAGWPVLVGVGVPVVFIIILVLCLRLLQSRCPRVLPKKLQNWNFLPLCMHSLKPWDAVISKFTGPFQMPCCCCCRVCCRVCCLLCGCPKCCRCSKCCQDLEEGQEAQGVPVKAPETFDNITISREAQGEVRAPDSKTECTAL

Rhesus SLC34A2 [8] = target: T2, Rhesus SLC34A2; assay: FACS, HEK293/Rhesus SLC34A2 cells; remark: listed apart in the source
human SLC34A2 [9] = target: T1, human SLC34A2; assay: cell-based or functional assay; remark: listed apart in the source
human SLC34A2 [10] = target: T1, human SLC34A2; assay: FACS, HEK293/human SLC34A2 cells; remark: listed apart in the source
Procedure: (§2) In another testing, cell based binding of hu Abs on human SLC34A2 expressing cells were assessed using flow cytometry. Briefly, the HEK293/H_SLC34A2, OVCAR3 and RMG-1 cells were incubated with hu Abs. After incubation at 4° C. for 60 minutes, the cells were washed with FACS buffer twice, then stained with fluorescent conjugated secondary antibody at 4° C. for 30 minutes. After that the cells were washed twice and analyzed by flow cytometry.

human SLC34A2 [11] = target: T1, human SLC34A2; assay: FACS, OVCAR3 cells; remark: listed apart in the source
Procedure: as §2

Rhesus SLC34A2 [12] = target: T2, Rhesus SLC34A2; assay: FACS, HEK293/Rhesus SLC34A2 cells; remark: listed apart in the source
human SLC34A2 [13] = target: T1, human SLC34A2; assay: FACS, OVCAR3 cells; remark: listed apart in the source
Procedure: The binding of these humanized antibodies to OVCAR3 cells was evaluated as described above, and the results are shown in FIG. 12A-D and Tables 16A-D.

human SLC34A2 [14] = target: T1, human SLC34A2; assay: cell-based or functional assay; remark: listed apart in the source
human SLC34A2 [15] = target: T1, human SLC34A2; assay: FACS, RMG-1 cells; remark: listed apart in the source
Procedure: as §2

B1: xi90G10H7 hIgG1 (antibody, V domains shown)
VH: QVQLQQPGAVLVKPGASVKMSCKASGYTFTSYIIHWVKQTPGQGLEWVGAIYPGNGDASSIQKFKGKATLTVDKSSSTAYMQLSSLTSADSAVYYCARGHYYGSAAWFAYWGQGTLVTVSA
VL: DILLTQSPAILSVSPGERVSFSCRASQNIGTGIHWYQQRTNGSLRLLIKYASESISGIPSRFSGSGSGTDFTLSINSVESEDIADYYCQQSNSWPLTFGAGTKLELK
notes: chimeric, hIgG1
- EC50 (human SLC34A2 [1]): 1.52 nM
- Top (MFI) (human SLC34A2 [1]): 114000 MFI
- EC50 (Rhesus SLC34A2 [2]): 2.19 nM
- Top (MFI) (Rhesus SLC34A2 [2]): 18500 MFI
- EC50 (human SLC34A2 [3]): 3.9 nM
- Top (MFI) (human SLC34A2 [3]): 72900 MFI
- ADCC reporter EC50 (human SLC34A2 [4]): 2.3 nM
- ADCC reporter Top (MFI) (human SLC34A2 [4]): 397000 MFI
- EC50 (human SLC34A2 [5]): 1.14 nM
- Top (MFI) (human SLC34A2 [5]): 32200 MFI
- EC50 (human SLC34A2 [6]): 2.77 nM
- Top (MFI) (human SLC34A2 [6]): 9920 MFI
- EC50 (human SLC34A2 [7]): 2.14 nM
- Top (MFI) (human SLC34A2 [7]): 43300 MFI
- EC50 (Cynomolgus SLC34A2): 2.4 nM
- Top (MFI) (Cynomolgus SLC34A2): 4560 MFI
- EC50 (Rhesus SLC34A2 [8]): 3.5 nM
- Top (MFI) (Rhesus SLC34A2 [8]): 47400 MFI
- cytotoxicity EC50 (human SLC34A2 [9]): 0.28 nM
- cytotoxicity Inhibition % (human SLC34A2 [9]): 103%

B2: 30H9B8F9 VH_P1/VL hIgG1 (antibody, V domains shown)
VH: QVQLQQPGAELVKPGASVKMSCKTSGYTFTTNNMHWVKQTPGQGLEWIGAIYPGSGATAYNQKFKGKATLTADKSSSTAYMQLSSLTSEASAVYYCARGMYGHGAMDYWGQGTSVIVSS
VL: DIVMTQSHKFMSRSVGDRVRITCKASQDVGTAVAWYQQKPGQSPKLLIYWATTRHSGVPDRFTGSGSGTDFIFTISNVQSEDLADYFCQQYSSNPLTFGAGTKLELK
notes: PTM-derisked chimeric, hIgG1; that P1 is the N=>S version follows from the humanized .p1 chains; also called 30H9B8F9.p1 hIgG1
- EC50 (human SLC34A2 [10]): 1.18 nM
- Top (human SLC34A2 [10]): 35700 MFI
- EC50 (human SLC34A2 [11]): 0.37 nM
- EC50 (Rhesus SLC34A2 [12]): 0.8 nM
- Top (MFI) (Rhesus SLC34A2 [12]): 17000 MFI
- EC50 (human SLC34A2 [3]): 1.5 nM
- Top (MFI) (human SLC34A2 [3]): 70400 MFI
- EC50 (human SLC34A2 [5]): 0.89 nM
- Top (MFI) (human SLC34A2 [5]): 31700 MFI
- EC50 (human SLC34A2 [13]): 0.68 nM
- Top (MFI) (human SLC34A2 [13]): 28700 MFI
- ADCC reporter EC50 (human SLC34A2 [14]): 2.52 nM
- ADCC reporter Top (MFI) (human SLC34A2 [14]): 126000 MFI
- EC50 (human SLC34A2 [15]): 1.09 nM
- Top (human SLC34A2 [15]): 11100 MFI
- EC50 (Rhesus SLC34A2 [8]): 2 nM
- Top (MFI) (Rhesus SLC34A2 [8]): 47400 MFI
